Experimental data: the supplement of paper PMC9170038

Experiments:
Details in all cases: FMN input: 0 or 200 uM; Eterna round: R93 (includes R88 designs)
[1] = test system: MS2 coat protein; experiment: apparent KD of MS2 coat protein, switch ON state; designed switch direction (-1 OFF switch, 1 ON switch): 1; higher = weaker reporter binding
Outline: (§1)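 The buffer was 100 mM Tris-HCl pH 7.5 with 80 mM KCl and 4 mM MgCl2, used without or with constant ligand. In it, RNA switches transcribed on-chip from Illumina sequencing clusters were titrated with SNAP-549-labelled MS2 coat protein in twofold steps from 0.7 or 1.5 nM to 3 µM. Apparent KD for each design is the median of its normalised cluster binding-curve fits.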

[2] = test system: MS2 coat protein; experiment: apparent KD of MS2 coat protein, switch OFF state (with FMN for OFF switches, without FMN for ON switches); designed switch direction (-1 OFF switch, 1 ON switch): 1; higher = weaker reporter binding
Outline: as §1

[3] = test system: MS2 coat protein; experiment: apparent KD of MS2 coat protein, switch ON state; designed switch direction (-1 OFF switch, 1 ON switch): -1; higher = weaker reporter binding
Outline: as §1

[4] = test system: MS2 coat protein; experiment: apparent KD of MS2 coat protein, switch OFF state (with FMN for OFF switches, without FMN for ON switches); designed switch direction (-1 OFF switch, 1 ON switch): -1; higher = weaker reporter binding
Outline: as §1

## AAAAAAAAAAGACAGGAUAUCCAAAAAAAAACAUGAGGAUCACCCAUGUAAAAAAAAAAAAAAUGGGAGAAGGGUCAAAAAAAAAA [Louisiana 5 - Jieux - Same State 2]
[1]
  apparent KD of MS2 coat protein: 21.9 nM
[2]
  apparent KD of MS2 coat protein: 36.5 nM

## AAAAAAAAAAGGCAGGAUAUCCAAAAAAAAACAUGAGGAUCACCCAUGUAAAAAAAAAAAAAAUGGGAGAAGGGCCAAAAAAAAAA [Mat - Mod of Eli]
[1]
  apparent KD of MS2 coat protein: 24.9 nM
[2]
  apparent KD of MS2 coat protein: 46.3 nM

## AAAAAACAUGAGGAUCACCCAUGUAAAAAAAACGCAGGAUAUCCCUUUUUUAAAUGGGAGGGAGAAGGGUGAAAAA [Nob's Hobby 13 - Jieux - Same State 1]
[1]
  apparent KD of MS2 coat protein: 22.4 nM
[2]
  apparent KD of MS2 coat protein: 43.8 nM

## AAAAAACAUGAGGAUCACCCAUGUAAAAAAAUGGGAGGAUAUAUGAAAAAAAAAAAAAAAAUAGAAGGCCUGAAAA [same state 11]
[1]
  apparent KD of MS2 coat protein: 399 nM
[2]
  apparent KD of MS2 coat protein: 64.2 nM

## AAAAAACAUGAGGAUCACCCAUGUAAAAAUAUGGGAGGAUAUUCAAACACGAAAGUGAAAGAAGAAGGCCUAAAAA [SS! MT 18]
[1]
  apparent KD of MS2 coat protein: 15 nM
[2]
  apparent KD of MS2 coat protein: 139 nM

## AAAAAACAUGAGGAUCACCCAUGUAAAUCUCAUGUAGGAUAUACAAAAAAAAAAAAAAAAGUAGAAGGACAAAAAA [Omei A variation 5]
[1]
  apparent KD of MS2 coat protein: 125 nM
[2]
  apparent KD of MS2 coat protein: 75.2 nM

## AAAAAACAUGAGGAUCACCCAUGUCAAAAGACGUGAGGAUAUGUACAGACUUCGGUCUGUACAGAAGGCACGAAAA [SS1 - 1037]
[1]
  apparent KD of MS2 coat protein: 12.9 nM
[2]
  apparent KD of MS2 coat protein: 20.1 nM

## AAAAAACAUGAGGAUCACCCAUGUCCUCGGACGUGAGGAUAUGUACAGACUUCGGUCUGUACAGAAGGCACGAAAA [SS1 - 1036]
[1]
  apparent KD of MS2 coat protein: 503 nM
[2]
  apparent KD of MS2 coat protein: 319 nM

## AAAAAACAUGAGGAUCACCCAUGUGAAAAAAACGCAGGAUAUCCCUUUUUUAAAUGGGAGGGAGAAGGGUGAAAAA [Nob's Hobby 14 - Jieux - Same State 1]
[1]
  apparent KD of MS2 coat protein: 36.3 nM
[2]
  apparent KD of MS2 coat protein: 45.9 nM

## AAAAAACAUGAGGAUCACCCAUGUGCAAAAUUCGCAGGAUAUCCCUUUUUUAAAUGGGAGGGAGAAGGGUGUAAAA [Nob's Hobby 18 - Jieux - Same State 1]
[1]
  apparent KD of MS2 coat protein: 27.1 nM
[2]
  apparent KD of MS2 coat protein: 47.4 nM

## AAAAAACAUGAGGAUCACCCAUGUGCAAAAUUCGCAGGAUAUUUUUCUUUUAAAUGAGAGGGAGAAGGGUGUAAAA [Nob's Hobby 23 - Jieux - Same State 1]
[1]
  apparent KD of MS2 coat protein: 21.6 nM
[2]
  apparent KD of MS2 coat protein: 22.1 nM

## AAAAAACAUGAGGAUCACCCAUGUGCAAAAUUCGCAGGAUAUUUUUUUUUUAAAUGAGAGGGAGAAGGGUGUAAAA [Nob's Hobby 22 - Jieux - Same State 1]
[1]
  apparent KD of MS2 coat protein: 27.4 nM
[2]
  apparent KD of MS2 coat protein: 33 nM

## AAAAAAUAAAAAAAGGAUAUAAAUGCUAGAACAUGAGGAUCACCCAUGUACUAGCAAAAAAUAAAAAAGAAGGAAAAAUAAAAAA [SS2: MS2 18]
[1]
  apparent KD of MS2 coat protein: 15.6 nM
[2]
  apparent KD of MS2 coat protein: 14.8 nM

## AAAAAGGAGAGAGAGGAUAUCCAAAGGAAAACAUGAGGAUCACCCAUGUAAAAGGUAGGAAAUUGGGAGAAGGCUCAAGAGAGAG [salish99-ss2-107]
[1]
  apparent KD of MS2 coat protein: 17.6 nM
[2]
  apparent KD of MS2 coat protein: 36.5 nM

## AAAACACAUGAGGAUCACCCAUGUAAAAACAUGAGAGGAUAUGCAUGAAAAACAUGCUAUGCAGAAGGCUCAUGUG [SS1 - 1]
[1]
  apparent KD of MS2 coat protein: 20.9 nM
[2]
  apparent KD of MS2 coat protein: 27.2 nM

## AAAAGACAUGAGGAUCACCCAUGUAAAAACGUAGGAGGAUAUGUCUGGAAAACAUGCUGGACAGAAGGCCUGUGUC [SS1 - 29]
[1]
  apparent KD of MS2 coat protein: 17.6 nM
[2]
  apparent KD of MS2 coat protein: 25.2 nM

## AAAAGACAUGAGGAUCACCCAUGUAAAGACAUAGGAGGAUAUGUCGUGAAAAAAGACUUGGCAGAAGGCCUUUGUC [SS1 - 46]
[1]
  apparent KD of MS2 coat protein: 21 nM
[2]
  apparent KD of MS2 coat protein: 25.6 nM

## AAAAGACAUGAGGAUCACCCAUGUCAAAACGUGGGAGGAUAUGCAUGGAAAACAUGCUGUGCAGAAGGCCCGUGUC [SS1 - 21]
[1]
  apparent KD of MS2 coat protein: 27.5 nM
[2]
  apparent KD of MS2 coat protein: 46.4 nM

## AAAAGGCUAAACUAGGAUAUGGGUGUCUAAACAUGAGGAUCACCCAUGUGAUGGCAAAACAAAGCUCAGAAGGAGUGGUAGCCCA [Riquceri]
[1]
  apparent KD of MS2 coat protein: 12.4 nM
[2]
  apparent KD of MS2 coat protein: 56.7 nM

## AAAAGGGCGACACAGGAUAUGUUGACUCUAACAUGAGGAUCACCCAUGUGCGUUUAGGGUCGUGCGCAGAAGGGUGUAGCUCGGA [Orvele]
[1]
  apparent KD of MS2 coat protein: 12.9 nM
[2]
  apparent KD of MS2 coat protein: 24.1 nM

## AAAAUAAAAUAAAAGGAUAUAAAAUAAAAUACAUGAGGAUCACCCAUGUAUAAAAUAAAAAAAUAAAAGAAGGAAUAAAAAUAAA [SS2 504: MS2 4]
[1]
  apparent KD of MS2 coat protein: 16.4 nM
[2]
  apparent KD of MS2 coat protein: 11.2 nM

## AAAAUACAUGAGGAUCACCCAUGUCCGACAAAUCAAGGAUAUGAUAGCCAAACCAGGCUGUUAGAAGGUGAAAGAA [Esesrien]
[1]
  apparent KD of MS2 coat protein: 260 nM
[2]
  apparent KD of MS2 coat protein: 151 nM

## AAACCACAUGAGGAUCACCCAUGUGAAAUACACAUAGGAUAUGCGAAAAGAAACAAAGAAGCAGAAGGGUGAAAAA [75%, Ex sub1, 17]
[1]
  apparent KD of MS2 coat protein: 35.4 nM
[2]
  apparent KD of MS2 coat protein: 41.3 nM

## AAAGACAUGGUGCAGGAUAUAUUAAUAGUCACAUGAGGAUCACCCAUGUUCAUAUAUAUGAACGAGUAGAAGGGCGAUGAAAAAA [SameState2 Malc#6]
[1]
  apparent KD of MS2 coat protein: 98 nM
[2]
  apparent KD of MS2 coat protein: 90.8 nM

## AAAUAAAAAAAAAAGGAUAUUCAUGUAAAAACAUGAGGAUCACCCAUGUAAAAAAAUAAAAAUAAAAAGAAGGAAAAAUAAAAAA [SS2: 85 No MS2]
[1]
  apparent KD of MS2 coat protein: 77.1 nM
[2]
  apparent KD of MS2 coat protein: 164 nM

## AAAUAAAGGACUAAGGAUAUAUCGCAUGACACAUGAGGAUCACCCAUGUGGUAACACAGAGGGUGAUAGAAGGUAGUCCACAAACA [Pariah 6 (MS2 Riboswitches - Same State 2)]
[1]
  apparent KD of MS2 coat protein: 42.8 nM
[2]
  apparent KD of MS2 coat protein: 287 nM

## AAAUAAAUGACUAAGGAUAUAUCGGAGAAAACAUGAGGAUCACCCAUGUAAUAAUAAAAAGGGUGAUAGAAGGUAGUCAACAAAC [Mod 1 of Pariah 4 by Hyphema in Round 1]
[1]
  apparent KD of MS2 coat protein: 37.3 nM
[2]
  apparent KD of MS2 coat protein: 63.6 nM

## AAAUAAAUGACUCAGGAUAUAUCAUAGAGUACAUGAGGAUCACCCAUGUUUUAAUAACAUGUUUGGUAGAAGGGAGUCAAUAAAU [LROPPY Same State 2 - v06_deltaG=1.99]
[1]
  apparent KD of MS2 coat protein: 25.8 nM
[2]
  apparent KD of MS2 coat protein: 127 nM

## AAAUAACAUGAGGAUCACCCAUGUUGCAGCGGUUGAGGAUAUGUGGGUGAAAAUAGCAUGGCAGAAGGCGAGUGUA [SameState1 Malc#26]
[1]
  apparent KD of MS2 coat protein: 71.3 nM
[2]
  apparent KD of MS2 coat protein: 71.9 nM

## AACAAUCUAUCUGAGGAUAUCAAAAAAAAAACAUGAGGAUCACCCAUGUCUAGGAAAACUAGAUAUGAGAAGGCAGAUAGAUUGA [SS1 - 593]
[1]
  apparent KD of MS2 coat protein: 7.93 nM
[2]
  apparent KD of MS2 coat protein: 49.6 nM

## AACAAUCUAUCUGAGGAUAUCAAGUCAAAGACAUGAGGAUCACCCAUGUGCAGGAAAACUGCACUUGAGAAGGCAGAUAGAUUGA [SS2: 1109]
[1]
  apparent KD of MS2 coat protein: 12.3 nM
[2]
  apparent KD of MS2 coat protein: 9.63 nM

## AACAAUCUAUCUGAGGAUAUCAUGUAAAAGACAUGAGGAUCACCCAUGUAGCAGGAAACUGCACAUGAGAAGGCAGAUAGAUUGA [SS2: 1124]
[1]
  apparent KD of MS2 coat protein: 15.9 nM
[2]
  apparent KD of MS2 coat protein: 19.6 nM

## UAUAGACAUGAGGAUCACCCAUGUGAGGAUAUCGGUGACUACAGGACAUCACGUACAAUGAGAAGGCACAGAAA [JR_Exc001_Sub017]
[3]
  apparent KD of MS2 coat protein: 40.3 nM
[4]
  apparent KD of MS2 coat protein: 44.2 nM

## UAUGAGCGAGGAUAUGCUUGGGACUGUCGGAAGGUGGCGGGACAUGAGGAUCACCCAUGUAGAAGGCGCGAGCG [Harteesian Tree]
[3]
  apparent KD of MS2 coat protein: 59.8 nM
[4]
  apparent KD of MS2 coat protein: 67.4 nM

## UCCGGACAUGAGGAUCACCCAUGUGAGGAUAUAUAACGUGGGACUGGAAACAAUCCCAAUAGAAGGCACAUGAC [Reisatridi]
[3]
  apparent KD of MS2 coat protein: 21.5 nM
[4]
  apparent KD of MS2 coat protein: 20.2 nM

## UCCUCACAUGAGGAUCACCCAUGUGAGGAUAUGUACAUCAGGAAAAAAAAACUGAUGUACAGAAGGCACAUGGA [Design 9: Super Stable G-C 2]
[3]
  apparent KD of MS2 coat protein: 15.9 nM
[4]
  apparent KD of MS2 coat protein: 11.2 nM

## UUUAAGUCAGGAUAUUCGGAUAGGAAAACGAAAACCUAUCCGAAGAAGGGACAUGAGGAUCACCCAUGUAAAAA [Starry Exclusion 4.3 (cataway round 1 mod)]
[3]
  apparent KD of MS2 coat protein: 52.1 nM
[4]
  apparent KD of MS2 coat protein: 56.3 nM
